Tested on: adipose tissue
Assay type: in vivo, human
Excerpt: Thus, by adjusting the single dose of hyaluronidase in the injection composition for topical fat removal of the present invention to 300 IU to 600 IU, the side effects from using the drug are minimized and yet fat removal over a wide area can be carried out using a minimal volume. It has been shown in clinical trials that at a hyaluronidase activity of 300 IU and an injection volume of 1 cc, the diameter of the diffusion range for the injection composition is about 1 cm. Thus, by injecting the composition at narrow intervals between injection points of 0.5 to 2 cm, even fat removal as well as collagen production by skin stimulation can be facilitated.

Substance: hyaluronidase
- amount at which adipose cells are excessively hydrolyzed, causing concerns about dimpling or subcutaneous bleeding (human, in vivo, sc): above 600 IU
- minimum amount of hyaluronidase exhibiting efficacy (single dose): 300 IU
